The source of these data is paper PMC2140025.

The test has as its target F-actin (rat (endogenous in MTLn3)) (UniProt P60711). Briefly: FLIP.

As for “GFP-cofilin (from UniProt P45592 1-166) (natural protein)”, the tau of the slow FLIP component (assigned to F-actin-bound cofilin) came out at 26 s.
